Test results taken from article PMC11259198.

Tests used:
Assay in all cases: SEC
[1] = biological target: globular N-terminal domain of human apolipoprotein A-I (residue fragment 1–184), Glu34Lys (human)
[2] = biological target: globular N-terminal domain of human apolipoprotein A-I (residue fragment 1–184), Leu159Arg (human)
[3] = biological target: globular N-terminal domain of human apolipoprotein A-I (residue fragment 1–184), Phe71Tyr (human)
[4] = biological target: globular N-terminal domain of human apolipoprotein A-I (residue fragment 1–184), wild type (human)

Question: How did the stoichiometry N [1] turn out when “globular N-terminal domain of human apolipoprotein A-I (residue fragment 1–184), Glu34Lys (domain or fragment)” was run?
Answer: Its stoichiometry N is 2.

Question: Which stoichiometry N [2] does the source give for “globular N-terminal domain of human apolipoprotein A-I (residue fragment 1–184), Leu159Arg (domain or fragment)” here?
Answer: Its stoichiometry N is 2.

Question: Which stoichiometry N [3] does the source give for “globular N-terminal domain of human apolipoprotein A-I (residue fragment 1–184), Phe71Tyr (domain or fragment)” here?
Answer: Its stoichiometry N is 2.

Question: Which stoichiometry N [4] does the source give for “globular N-terminal domain of human apolipoprotein A-I (residue fragment 1–184), wild type (domain or fragment)” here?
Answer: The stoichiometry N was 2.
